According to patent publication US20230212587A1, “Mutant Hydroxyphenylpyruvate Dioxygenase Polypeptide, Encoding Gene Thereof and Use Therefor” (Beijing Dabeinong Biotechnology Co., Ltd., priority 2019, published 2023):
Residue numbers refer to the chain shown, from its start. In names and notes the source's numbering stands.

B1: BdHPPDm-F372G: Brachypodium distachyon HPPD mutant F372G, SEQ ID NO: 303 (protein)
chain: MPPPATTAAPAAAAVTPEHARPPRRVARVNPRSDRFSALSFHHVELWCADAASAAGRFSFALGAPPAARSDLSTGNSAHASILLRSGSLAFLFTAPYAPSPASDSAASIPSFSASAARQFTADHGGLAVRAVALRVSSASDAFHASVSAGARPSFPPADLGQGFALAEVELYGDVVLRFISHPDENTEIPFLPGFESVSNPGASTYGLTRFDHVVGNVPSLAPVAAYIAGFTGFHEFAEFTAEDVGTADSGLNSVVLANNSERVLLPLNEPVHGTKRRSQIQTYLDHHGGPGVQHIALASDDVLRTLREMRARSAMGGFEFLAPPPPNYYDGVRRRAGDVLSEAQIKECQELGVLVDRDDQGVLLQIGTKPVGDRPTLFLEMIQRIGCMEKDEIGQEQQKGGCGGFGKGNFSELFRSIEEYEKSLEAKQSAVVQES
modifications: BdHPPDm-F372G Amino Acid Sequence
B2: HvHPPDm-F372G: Hordeum vulgare HPPD mutant F372G, SEQ ID NO: 305 (protein)
chain: MPPTPTTPAATGAAAAVTPEHARPHRMVRFNPRSDRFHTLSFHHVEFWCADAASAAGRFAFALGAPLAARSDLSTGNSAHASQLLRSGSLAFLFTAPYANGCDAATASLPSFSADAARRFSADHGIAVRSVALRVADAAEAFRASRRRGARPAFAPVDLGRGFAFAEVELYGDVVLRFVSHPDGTDVPFLPGFEGVTNPDAVDYGLTRFDHVVGNVPELAPAAAYIAGFTGFHEFAEFTAEDVGTTESGLNSVVLANNSEGVLLPLNEPVHGTKRRSQIQTFLEHHGGPGVQHIAVASSDVLRTLRKMRARSAMGGFDFLPPPLPKYYEGVRRLAGDVLSEAQIKECQELGVLVDRDDQGVLLQIGTKPVGDRPTLFLEMIQRIGCMEKDERGEEYQKGGCGGFGKGNFSELFKSIEDYEKSLEAKQSAAVQGS
modifications: HvHPPDm-F372G Amino Acid Sequence
B3: SiHPPDm-F372G: Setaria italica HPPD mutant F372G, SEQ ID NO: 307 (protein)
chain: MPPTPTPAAAAPGAAAAPAAGDQAAFRLVGHRGFVRVNPRSDRFHTLSFHHVELWCADATSAAGRFSFGLGAPLAARSDLSTGNSAHASLLLRSGSLAFLFTAPYAHGVDAATASLPSFSAPAARSFAADHGLAVRAIGLRVADAEDAFRASVAAGARPAFKPVELGLGFRLAEVELYGDVVLRYVSYPDAEDAPFLPGFENVNNPGALNYGLRRFDHIVGNVPELAPVAAYVAGFTGFHEFAEFTAEDVGTAESGLNSMVLANNSETVLIPLNEPVHGTKRRSQIQTFLDHNGGPGVQHIALASDDVLRTLREMQARSAMGGFEFMAAPPPDYYEGVRRRAGDVLSEAQIKECQELGVLVDRDDQGVLLQIGTKPVGDRQTLFLEIIQRIGCMEKDEQGQEYQKGGCGGFGKGNFSQLFKSIEDYEKSLESKQAAAVQGS
modifications: SiHPPDm-F372G Amino Acid Sequence
B4: SbHPPDm-F372G: Sorghum bicolor HPPD mutant F372G, SEQ ID NO: 309 (protein)
chain: MPPTPTTAAATGAAVAAASAEQAAFRLVGHRNFVRVNPRSDRFHTLAFHHVELWCADAASAAGRFSFGLGAPLAARSDLSTGNTAHASLLLRSGALAFLFTAPYAHGADAATASLPSFSAAEARRFAADHGLAVRAVALRVADAEDAFRASVAAGARPAFEPVELGLGFRLAEVELYGDVVLRYVSYPDDADASFLPGFVGVTSPGAADYGLRRFDHIVGNVPELAPAAAYFAGFTGFHEFAEFTAEDVGTTESGLNSMVLANNAENVLLPLNEPVHGTKRRSQIQTYLDHHGGPGVQHMALASDDVLRTLREMQARSAMGGFEFMAPPAPEYYDGVRRRAGDVLTEAQIKECQELGVLVDRDDQGVLLQIGTKPVGDRPTLFLEIIQRIGCMEKDEKGQEYQKGGCGGFGKGNFSQLFKSIEDYEKSLEAKQAAAAQGS
modifications: SbHPPDm-F372G Amino Acid Sequence
B5: F372T (protein, listed as Avena sativa)
chain: MPPTPATATGAAAAAVTPEHAARSFPRVVRVNPRSDRFPVLSFHHVELWCADAASAAGRFSFALGAPLAARSDLSTGNSAHASLLLRSGALAFLFTAPYAPPPQEAATAAATASIPSFSADAARTFAAAHGLAVRSVGVRVADAAEAFRVSVAGGARPAFAPADLGHGFGLAEVELYGDVVLRFVSYPDETDLPFLPGFERVSSPGAVDYGLTRFDHVVGNVPEMAPVIDYMKGFLGFHEFAEFTAEDVGTTESGLNSVVLANNSEAVLLPLNEPVHGTKRRSQIQTYLEYHGGPGVQHIALASNDVLRTLREMRARTPMGGFEFMAPPQAKYYEGVRRIAGDVLSEEQIKECQELGVLVDRDDQGVLLQITTKPVGDRPTFFLEMIQRIGCMEKDEVGQEYQKGGCGGFGKGNFSELFKSIEDYEKSLEVKQSVVAQKS
modifications: AsHPPD Amido Acid Sequence
B6: F372C (protein, listed as Avena sativa)
chain: B5 chain with T372C
modifications: AsHPPD Amido Acid Sequence
B7: F372M (protein, listed as Avena sativa)
chain: B5 chain with T372M
modifications: AsHPPD Amido Acid Sequence
B8: F372E (protein, listed as Avena sativa)
chain: B5 chain with T372E
modifications: AsHPPD Amido Acid Sequence
B9: F372K. (protein, listed as Avena sativa)
chain: B5 chain with T372K
modifications: AsHPPD Amido Acid Sequence
B10: F372 deletion (protein, listed as Avena sativa)
chain: MPPTPATATGAAAAAVTPEHAARSFPRVVRVNPRSDRFPVLSFHHVELWCADAASAAGRFSFALGAPLAARSDLSTGNSAHASLLLRSGALAFLFTAPYAPPPQEAATAAATASIPSFSADAARTFAAAHGLAVRSVGVRVADAAEAFRVSVAGGARPAFAPADLGHGFGLAEVELYGDVVLRFVSYPDETDLPFLPGFERVSSPGAVDYGLTRFDHVVGNVPEMAPVIDYMKGFLGFHEFAEFTAEDVGTTESGLNSVVLANNSEAVLLPLNEPVHGTKRRSQIQTYLEYHGGPGVQHIALASNDVLRTLREMRARTPMGGFEFMAPPQAKYYEGVRRIAGDVLSEEQIKECQELGVLVDRDDQGVLLQITKPVGDRPTFFLEMIQRIGCMEKDEVGQEYQKGGCGGFGKGNFSELFKSIEDYEKSLEVKQSVVAQKS
modifications: AsHPPD Amido Acid Sequence

Tested on: Arabidopsis thaliana T1 plants
Test: Topramezone tolerance of transgenic Arabidopsis thaliana T1 plants (pesticide damage grade by bleached leaf area, score, resistance evaluation)
Assay type: in vivo
Set-up: score: scale not given here
Conditions: topramezone 25 g ai/ha (1x); HPPD F372G mutants, Table 6
Method in brief: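 Herbicide tolerance was judged per plant on a bleaching scale (grade 0 no bleaching to grade 3 fully bleached) 7 DAT. Topramezone doses were 0, 25, 50 and 100 g ai/ha on 18-day-old T1 and wild-type plants.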

| Molecule | Resistance evaluation |
| --- | --- |
| B1 | Highly resistant |
| B2 | Highly resistant |
| B3 | Moderately resistant |
| B4 | Moderately resistant |

Same assay, conditions: topramezone 25 g ai/ha (1x); HPPD from Avena sativa source

| Molecule | Resistance Grade | score |
| --- | --- | --- |
| B5 | Highly resistant | 0 |
| B6 | Highly resistant | 0 |
| B7 | Highly resistant | 0 |
| B8 | Poorly resistant | 60 |
| B9 | Moderately resistant | 33 |
| B10 | Highly resistant | 0 |

Same assay, conditions: topramezone 25 g ai/ha (1x); number of plants; HPPD from Avena sativa source

| Molecule | Grade 0 | Grade 1 | Grade 2 | Grade 3 |
| --- | --- | --- | --- | --- |
| B5 | 20 | 0 | 0 | 0 |
| B6 | 20 | 0 | 0 | 0 |
| B7 | 20 | 0 | 0 | 0 |
| B8 | 0 | 8 | 8 | 4 |
| B9 | 0 | 20 | 0 | 0 |
| B10 | 20 | 0 | 0 | 0 |

Same assay, conditions: topramezone 50 g ai/ha (2x); HPPD from Avena sativa source

| Molecule | Resistance Grade | score |
| --- | --- | --- |
| B5 | Highly resistant | 3 |
| B6 | Highly resistant | 3 |
| B7 | Moderately resistant | 20 |
| B8 | Poorly resistant | 63 |
| B9 | Poorly resistant | 47 |
| B10 | Highly resistant | 0 |

Same assay, conditions: topramezone 50 g ai/ha (2x); number of plants; HPPD from Avena sativa source

| Molecule | Grade 0 | Grade 1 | Grade 2 | Grade 3 |
| --- | --- | --- | --- | --- |
| B5 | 18 | 2 | 0 | 0 |
| B6 | 18 | 2 | 0 | 0 |
| B7 | 8 | 12 | 0 | 0 |
| B8 | 0 | 6 | 10 | 4 |
| B9 | 2 | 8 | 10 | 0 |
| B10 | 20 | 0 | 0 | 0 |

Same assay, conditions: topramezone 100 g ai/ha (4x); HPPD F372G mutants, Table 6

| Molecule | Resistance evaluation |
| --- | --- |
| B1 | Moderately resistant |
| B2 | Poorly resistant |
| B3 | Poorly resistant |
| B4 | Non-resistant |

Same assay, conditions: topramezone 100 g ai/ha (4x); HPPD from Avena sativa source

| Molecule | Resistance Grade | score |
| --- | --- | --- |
| B5 | Moderately resistant | 17 |
| B6 | Moderately resistant | 27 |
| B7 | Poorly resistant | 50 |
| B8 | Non-resistant | 97 |
| B9 | Non-resistant | 90 |
| B10 | Highly resistant | 3 |

Same assay, conditions: topramezone 100 g ai/ha (4x); number of plants; HPPD from Avena sativa source

| Molecule | Grade 0 | Grade 1 | Grade 2 | Grade 3 |
| --- | --- | --- | --- | --- |
| B5 | 10 | 10 | 0 | 0 |
| B6 | 8 | 8 | 4 | 0 |
| B7 | 2 | 6 | 12 | 0 |
| B8 | 0 | 0 | 2 | 18 |
| B9 | 0 | 0 | 6 | 14 |
| B10 | 18 | 2 | 0 | 0 |
